# B1: FLAG-FANCA (human Fanconi anemia complementation group A protein) (natural protein, UniProt O15360-1 1-1455, looked up)
# chain: MSDSWVPNSASGQDPGGRRRAWAELLAGRVKREKYNPERAQKLKESAVRLLRSHQDLNALLLEVEGPLCKKLSLSKVIDCDSSEAYANHSSSFIGSALQDQASRLGVPVGILSAGMVASSVGQICTAPAETSHPVLLTVEQRKKLSSLLEFAQYLLAHSMFSRLSFCQELWKIQSSLLLEAVWHLHVQGIVSLQELLESHPDMHAVGSWLFRNLCCLCEQMEASCQHADVARAMLSDFVQMFVLRGFQKNSDLRRTVEPEKMPQVTVDVLQRMLIFALDALAAGVQEESSTHKIVRCWFGVFSGHTLGSVISTDPLKRFFSHTLTQILTHSPVLKASDAVQMQREWSFARTHPLLTSLYRRLFVMLSAEELVGHLQEVLETQEVHWQRVLSFVSALVVCFPEAQQLLEDWVARLMAQAFESCQLDSMVTAFLVVRQAALEGPSAFLSYADWFKASFGSTRGYHGCSKKALVFLFTFLSELVPFESPRYLQVHILHPPLVPGKYRSLLTDYISLAKTRLADLKVSIENMGLYEDLSSAGDITEPHSQALQDVEKAIMVFEHTGNIPVTVMEASIFRRPYYVSHFLPALLTPRVLPKVPDSRVAFIESLKRADKIPPSLYSTYCQACSAAEEKPEDAALGVRAEPNSAEEPLGQLTAALGELRASMTDPSQRDVISAQVAVISERLRAVLGHNEDDSSVEISKIQLSINTPRLEPREHMAVDLLLTSFCQNLMAASSVAPPERQGPWAALFVRTMCGRVLPAVLTRLCQLLRHQGPSLSAPHVLGLAALAVHLGESRSALPEVDVGPPAPGAGLPVPALFDSLLTCRTRDSLFFCLKFCTAAISYSLCKFSSQSRDTLCSCLSPGLIKKFQFLMFRLFSEARQPLSEEDVASLSWRPLHLPSADWQRAALSLWTHRTFREVLKEEDVHLTYQDWLHLELEIQPEADALSDTERQDFHQWAIHEHFLPESSASGGCDGDLQAACTILVNALMDFHQSSRSYDHSENSDLVFGGRTGNEDIISRLQEMVADLELQQDLIVPLGHTPSQEHFLFEIFRRRLQALTSGWSVAASLQRQRELLMYKRILLRLPSSVLCGSSFQAEQPITARCEQFFHLVNSEMRNFCSHGGALTQDITAHFFRGLLNACLRSRDPSLMVDFILAKCQTKCPLILTSALVWWPSLEPVLLCRWRRHCQSPLPRELQKLQEGRQFASDFLSPEAASPAPNPDWLSAAALHFAIQQVREENIRKQLKKLDCEREELLVFLFFFSLMGLLSSHLTSNSTTDLPKAFHVCAAILECLEKRKISWLALFQLTESDLRLGRLLLRVAPDQHTRLLPFAFYSLLSYFHEDAAIREEAFLHVAVDMYLKLVQLFVAGDTSTVSPPAGRSLELKGQGNPVELITKARLFLLQLIPRCPKKSFSHVAELLADRGDCDPEVSAALQSRQQAAPDADLSQEPHLF
# Target: Flap endonuclease 1 (FEN1) (human (endogenous in RA3087 cells), UniProt P39748-1 1-380)
# Sequence (P39748 whole entry): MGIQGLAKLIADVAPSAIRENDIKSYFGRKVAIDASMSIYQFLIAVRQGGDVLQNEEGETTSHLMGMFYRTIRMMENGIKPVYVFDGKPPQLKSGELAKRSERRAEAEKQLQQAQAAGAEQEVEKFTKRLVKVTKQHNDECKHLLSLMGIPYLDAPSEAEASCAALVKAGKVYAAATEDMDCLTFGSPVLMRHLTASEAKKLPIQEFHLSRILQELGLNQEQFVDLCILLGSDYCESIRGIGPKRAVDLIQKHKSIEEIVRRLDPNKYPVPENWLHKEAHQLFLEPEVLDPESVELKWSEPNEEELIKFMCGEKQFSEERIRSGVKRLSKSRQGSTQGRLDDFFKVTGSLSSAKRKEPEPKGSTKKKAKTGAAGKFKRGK
# Experiment: cell-based or functional assay
binder,measurement,value
B1,"stimulation of FEN1 5' flap endonuclease activity on the 15-nt DNA flap (2 nM substrate, 0.2 nM purified FEN1) by purified His6-FANCA at 2.5, 5, 10 nM; fold over FEN1 alone",4.5 fold
same,"stimulation of FEN1 5' flap endonuclease activity on the 15-nt RNA flap (2 nM substrate, 0.1 nM purified FEN1) by purified His6-FANCA at 2.5, 5, 10 nM; fold over FEN1 alone",8 fold

# Source: article PMC3857783, “Human Fanconi Anemia Complementation Group A Protein Stimulates the 5’ Flap Endonuclease Activity of FEN1” (PLoS ONE, 2013)
